We go through 2 molecules from patent US20260226191A1 (SHANDONG SIMCERE BIOPHARMACEUTICAL, published 2026).

Assay [1] addresses T1, monkey MUC17 on FlpinCHO-cynoMUC17-D1 cells (monkey).
T1 construct: On cells; also called recombinant cells overexpressing monkey MUC17
Briefly: FACS on FlpinCHO-cynoMUC17-D1 cells, MFI.

The target of assay [2] is T2, human cell surface CD3 (Jurkat cells, human PBMCs) (human, UniProt P07766 23-207).
T2 construct: whole, on cells; CD3 is a multi-chain complex on the cell
T2 sequence (P07766 23-207): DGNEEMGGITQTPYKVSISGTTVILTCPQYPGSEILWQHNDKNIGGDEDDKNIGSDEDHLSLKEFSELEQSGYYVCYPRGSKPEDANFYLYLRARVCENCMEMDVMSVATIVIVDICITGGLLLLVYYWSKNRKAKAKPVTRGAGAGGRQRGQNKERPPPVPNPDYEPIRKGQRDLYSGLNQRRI
Briefly: FACS on naive human PBMCs (CD3), MFI.

Assay [3] deals with T3, Cyno MUC17 ECD3577-mFc (mFc-tagged cynomolgus monkey MUC17 protein extracellular region fusion protein) (cynomolgus monkey).
T3 construct: also called monkey MUC17-mFc protein; Monkey MUC17-ECD3577-mFc protein
T3 chain: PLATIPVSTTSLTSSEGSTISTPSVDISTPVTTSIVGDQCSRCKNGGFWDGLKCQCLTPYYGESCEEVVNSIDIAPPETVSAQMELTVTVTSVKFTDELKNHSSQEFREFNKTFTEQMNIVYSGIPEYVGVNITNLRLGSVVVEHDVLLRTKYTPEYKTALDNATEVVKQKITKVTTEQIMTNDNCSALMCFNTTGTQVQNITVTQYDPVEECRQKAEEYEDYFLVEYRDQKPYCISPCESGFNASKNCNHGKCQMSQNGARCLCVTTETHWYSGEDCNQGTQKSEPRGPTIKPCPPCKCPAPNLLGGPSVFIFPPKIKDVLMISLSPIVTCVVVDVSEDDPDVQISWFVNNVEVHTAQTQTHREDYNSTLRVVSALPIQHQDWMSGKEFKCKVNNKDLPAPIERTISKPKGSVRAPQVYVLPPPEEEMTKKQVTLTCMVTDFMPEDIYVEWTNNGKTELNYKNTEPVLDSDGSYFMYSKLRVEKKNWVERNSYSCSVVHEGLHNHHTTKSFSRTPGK
The assay is described as follows: SPR (Biacore 8K), antibody captured on Protein A, antigen injected, 25 C, 1:1 model.

For assay [4], the target named is T4, Human MUC17 ECD4131-his (His-tagged human MUC17 protein extracellular region fusion protein) (human, UniProt Q685J3 4131-4393).
T4 construct: also called human MUC17-his protein; Human MUC17-ECD(4131-4393)-His protein
The description is as above.

Assay [5] has as its target T5, human MUC17 on endogenous tumor cells (NUGC4, SNU16, ASPC1) (human).
T5 construct: whole, on cells; also called MUC17-positive tumor cells
Briefly: FACS on SNU16 cells (endogenous human MUC17), MFI.

For assay [6], the target named is T3, Cyno MUC17 ECD3577-mFc (mFc-tagged …). The assay is described as follows: ELISA, cynomolgus MUC17-mFc coated on the plate, OD450.
Assay [7] has as its target T6, human MUC17 fragment on FlpinCHO-huMUC17-D1 cells (human).
T6 construct: On cells; also called cells overexpressing human MUC17
Briefly: FACS on FlpinCHO-huMUC17-D1 cells, MFI.

Assay [8] has as its target T5, human MUC17 on endogenous tumor cells …. The assay is described as follows: FACS on NUGC4 cells (endogenous human MUC17), MFI.
For assay [9] the target is unchanged. The assay is described as follows: cell-based or functional assay.
The target is the same in assay [10]. The assay is described as follows: FACS on AspC-1 cells (endogenous human MUC17), MFI.
For assay [11], the target named is T4, Human MUC17 ECD4131-his (His-tagged …). The assay is described as follows: ELISA, human MUC17-his coated on the plate, OD450.
The target of assay [12] is T7, Human CD3e-His protein (Sino Biological, CAT #10977-H08H) (human, UniProt P07766 23-126).
T7 construct: Bought reagent; also called human CD3e protein
T7 sequence (P07766 23-126 limits assumed): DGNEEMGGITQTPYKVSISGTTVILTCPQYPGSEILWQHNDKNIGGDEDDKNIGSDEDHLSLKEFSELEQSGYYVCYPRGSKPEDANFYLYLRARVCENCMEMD
The assay is described as follows: ELISA, human CD3e-His coated on the plate, OD450.

B1: Bis 58 (bispecific antibody, human IgG1, kappa)
heavy: EVQLVESGGGVVQPGRSLRLSCAASGFTFTDYYMSWVRQAPGKGLEWVAMSRNKAKGHTIEYSSSVKGRFTISRDNSKNTLYLQMNSLRAEDTAVYYCARDTYESYDGYFDVWGQGTTVTVSSASTKGPSVFPLAPSSKSTSGGTAALGCLVKDYFPEPVTVSWNSGALTSGVHTFPAVLQSSGLYSLSSVVTVPSSSLGTQTYICNVNHKPSNTKVDKKVEPKSCDKTHTCPPCPAPEAAGAPSVFLFPPKPKDTLMISRTPEVTCVVVDVSHEDPEVKFNWYVDGVEVHNAKTKPREEQYNSTYRVVSVLTVLHQDWLNGKEYKCKVSNKALPAPIEKTISKAKGQPREPQVYTLPPSREEMTKNQVSLWCLVKGFYPSDIAVEWESNGQPENNYKTTPPVLDSDGSFFLYSKLTVDKSRWQQGNVFSCSVMHEALHNHYTQKSLSLSPG
light: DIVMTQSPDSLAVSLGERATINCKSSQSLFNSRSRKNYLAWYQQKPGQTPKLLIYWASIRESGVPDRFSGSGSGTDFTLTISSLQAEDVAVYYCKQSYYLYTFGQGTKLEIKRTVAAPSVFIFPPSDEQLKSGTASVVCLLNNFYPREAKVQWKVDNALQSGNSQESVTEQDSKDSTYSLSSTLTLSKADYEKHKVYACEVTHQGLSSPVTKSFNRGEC
chain: EVQLVESGGGLVQPGGSLRLSCAASGFPSSRGTMAWFRQAPGKEREGVAFINSDGRTSYAESVKGRFTISRDNAKNSLYLQMNSLRAEDTAVYYCAASLLYLMTVNAAAYPYWGQGTMVTVSSGGGDKTHTCPPCPAPEAAGAPSVFLFPPKPKDTLMISRTPEVTCVVVDVSHEDPEVKFNWYVDGVEVHNAKTKPREEQYNSTYRVVSVLTVLHQDWLNGKEYKCKVSNKALPAPIEKTISKAKGQPREPQVYTLPPSREEMTKNQVSLSCAVKGFYPSDIAVEWESNGQPENNYKTTPPVLDSDGSFFLVSKLTVDKSRWQQGNVFSCSVMHEALHNHYTQKSLSLSPG
notes: Three-chain asymmetric MUC17xCD3 bispecific
Regarding B1, the “EC50 (read off the curve)” value in assay [1] is approximately 8 nM; in assay [2], approximately 50 nM; in assay [5] it was approximately 0.2 nM; in [6], approximately 0.07 nM; in [7], approximately 1 nM; in assay [8], approximately 0.5 nM. In addition, the “EC50 (read off the curve)” value in [10] is approximately 0.2 nM; in assay [11] it was approximately 0.05 nM. Besides, the Kd in assay [3] was found to be 7.11 nM; in assay [4] it was 0.378 nM. Further, the values for the koff in assay [3] and in assay [4] were 0.00031 s⁻¹ and 0.000138 s⁻¹, respectively. The values for the kon in assay [3] and in assay [4] were 43600 M⁻¹ s⁻¹ and 364000 M⁻¹ s⁻¹, respectively. Moreover, in assay [9], the “PBMC-mediated in vitro tumor cell killing EC50, ASPC-1” value turned out to be 0.0194 nM. For the same molecule, the “PBMC-mediated in vitro tumor cell killing EC50, NUGC4” value in assay [9] turned out to be 0.0271 nM.

B2: Bis 92 (bispecific antibody, human IgG1, kappa)
heavy: EVQLVESGGGVVQPGRSLRLSCAASGFTFTDYYMSWVRQAPGKGLEWVAMSRNKAKGHTIEYSSSVKGRFTISRDNSKNTLYLQMNSLRAEDTAVYYCARDTYESYDGYFDVWGQGTTVTVSSASTKGPSVFPLAPSSKSTSGGTAALGCLVKDYFPEPVTVSWNSGALTSGVHTFPAVLQSSGLYSLSSVVTVPSSSLGTQTYICNVNHKPSNTKVDKKVEPKSCDKTHTCPPCPAPEAAGAPSVFLFPPKPKDTLMISRTPEVTCVVVDVSHEDPEVKFNWYVDGVEVHNAKTKPREEQYNSTYRVVSVLTVLHQDWLNGKEYKCKVSNKALPAPIEKTISKAKGQPREPQVYTLPPSREEMTKNQVSLWCLVKGFYPSDIAVEWESNGQPENNYKTTPPVLDSDGSFFLYSKLTVDKSRWQQGNVFSCSVMHEALHNHYTQKSLSLSPG
light: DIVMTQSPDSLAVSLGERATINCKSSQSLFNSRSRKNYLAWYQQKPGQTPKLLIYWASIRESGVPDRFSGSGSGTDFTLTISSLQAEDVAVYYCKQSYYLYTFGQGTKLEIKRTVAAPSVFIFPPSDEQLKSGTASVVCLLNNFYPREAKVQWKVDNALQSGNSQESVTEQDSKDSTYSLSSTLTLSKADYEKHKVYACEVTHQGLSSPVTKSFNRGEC
chain: EVQLVESGGGVVQPGGSLRLSCAASGYTSNRYSMAWFRQAPGKEREVVAFIWTDGGRTYYADSVKGRFTISRDNSKNTLYLQMNSLRAEDTAVYYCAASSLLLQTINPRAWPYWGQGTMVTVSSGGGDKTHTCPPCPAPEAAGAPSVFLFPPKPKDTLMISRTPEVTCVVVDVSHEDPEVKFNWYVDGVEVHNAKTKPREEQYNSTYRVVSVLTVLHQDWLNGKEYKCKVSNKALPAPIEKTISKAKGQPREPQVYTLPPSREEMTKNQVSLSCAVKGFYPSDIAVEWESNGQPENNYKTTPPVLDSDGSFFLVSKLTVDKSRWQQGNVFSCSVMHEALHNHYTQKSLSLSPG
notes: as for B1
For B2, the 50% effective concentration (EC50 (read off the curve)) is approximately 20 nM in assay [1]; approximately 0.08 nM in assay [5]; approximately 0.09 nM in assay [6]; approximately 1 nM in assay [7]; approximately 0.2 nM in [8]; approximately 0.08 nM in assay [10]. For the same molecule, the “EC50 (read off the curve)” value in assay [11] is approximately 0.05 nM. The Kd in assay [3] is 13.4 nM; in assay [4], 0.136 nM. For the same molecule, the koff turned out to be 0.000511 s⁻¹ in assay [3] and 7.81e-05 s⁻¹ in [4]. Further, the values for the kon in assay [3] and in assay [4] were 38100 M⁻¹ s⁻¹ and 572000 M⁻¹ s⁻¹, respectively. In addition, in assay [9], the “PBMC-mediated in vitro tumor cell killing EC50, ASPC-1” value came out at 0.00739 nM. Also, in assay [9], the “PBMC-mediated in vitro tumor cell killing EC50, NUGC4” value turned out to be 0.00779 nM. Further, in [12], the binding result is given as “binds”.
